From the supplement of paper PMC10724198
± gives the standard deviation of the averaged measurements.

test system: Saccharomyces cerevisiae; assay: protein stability index of tFT-peptide fusion (C-terminal peptide) (PSI (0-1 scale)); higher = more stable (slower turnover); settings: genetic background: wild type; temperature: 30 C
Description: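 Multiplexed protein stability (MPS) profiling in S. cerevisiae. Random 12-aa peptides (tFT-X12 library) are fused to the C-terminus of a sfGFP-mCherry tandem fluorescent timer, after mCherry and a GGGS linker. Cells are FACS-sorted into 8 mCherry/sfGFP bins and deep-sequenced. The protein stability index (PSI) is the read-weighted bin average, scaled from 0 (unstable) to 1 (stable). Only peptides with >10 reads are reported; cells were grown at 30 °C in SC-His with glucose.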
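Also: PSI is a weighted mean of sequencing reads over stability bins, variants kept only with over 10 reads, mCherry proximal and sfGFP distal, peptide attached via GGGS linker.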

| Sequence | protein stability index |
| --- | --- |
| GVLLCVDGSGGE | 0.762 ± 0.054 |
| GVMASLVRMSQG | 0.679 ± 0.11 |
| GVPAPVFCRSIF | 0.618 ± 0.015 |
| GVPPFSPPPPPH | 0.683 ± 0.017 |
| GVQCLVFIGRPK | 0.69 ± 0.093 |
| GVQEGGGVARGG | 0.639 ± 0.018 |
| GVRGALGCAGRV | 0.679 ± 0.02 |
| GVRNGFMSVSLY | 0.651 ± 0.01 |
| GVSGGDGSKCKE | 0.682 ± 0.016 |
| GVSLFFITQFET | 0.712 ± 0.012 |
| GVSPSCILPLIL | 0.653 ± 0.011 |
| GVSPSPPSPPPH | 0.741 ± 0.062 |
| GVSRGTGIGEGE | 0.6774 ± 0.0039 |
| GVVCWRFLLADV | 0.596 ± 0.028 |
| GVVGCSCLGCGF | 0.717 ± 0.054 |
| GVVGVGRCWGLV | 0.628 ± 0.08 |
| GVWCLDVYGRRC | 0.6837 ± 0.0022 |
| GVYWGEIDDVER | 0.717 ± 0.015 |
| GWAFDVAGQSAR | 0.683 ± 0.0097 |
| GWAGGEGWRGEG | 0.6964 ± 0.0062 |
| GWALGRGRRVSG | 0.691 ± 0.033 |
| GWDFRERLGGSG | 0.71 ± 0.028 |
| GWGGCDSVVVSG | 0.697 ± 0.033 |
| GWGGGCGCGRGI | 0.687 ± 0.058 |
| GWGVGGKVGQAG | 0.6814 ± 0.0047 |

| Sequence | protein stability index |
| --- | --- |
| GWLAERGPLEGG | 0.728 ± 0.016 |
| GWLVVLGLVQDL | 0.559 ± 0.039 |
| GWMTGMEERGGG | 0.674 ± 0.053 |
| GWNCTAFRTLHI | 0.662 ± 0.061 |
| GWNGAGSGCVRA | 0.659 ± 0.068 |
| GWREPQHGARGP | 0.719 ± 0.022 |
| GWRGGGSRELKW | 0.743 ± 0.031 |
| GWWCAGVREWTR | 0.8 ± 0.013 |
| GYCGRGCWGVGC | 0.7093 ± 0.0056 |
| GYLPPPDSLSSS | 0.672 ± 0.023 |
| GYLVECKRLCVW | 0.588 ± 0.024 |
| GYNARHILGRVG | 0.699 ± 0.011 |
| GYNCKWGRTNVT | 0.6782 ± 0.0024 |
| GYPASGVLIVFF | 0.512 ± 0.026 |
| GYPLRSHCLIVD | 0.68 ± 0.0081 |
| GYSPMGFSFFPV | 0.673 ± 0.047 |
| HAPLIPRFALIP | 0.677 ± 0.013 |
| HAPSRAPFPTAS | 0.71 ± 0.067 |
| HCFCFSVSSFFG | 0.667 ± 0.026 |
| HCFFSVPFRSGF | 0.691 ± 0.045 |
| HCLLLSLVFFFW | 0.727 ± 0.03 |
| HCSYSSSRPSPR | 0.543 ± 0.043 |
| HDWPQTTRADQS | 0.677 ± 0.036 |
| HFGRYLSSVFGV | 0.679 ± 0.05 |
| HFGSSLPPFCCI | 0.76 ± 0.021 |

| Sequence | protein stability index |
| --- | --- |
| HFKHLALVQQFP | 0.69 ± 0.048 |
| HFPPPPRPSAPP | 0.681 ± 0.036 |
| HFSPLILSSYTV | 0.693 ± 0.037 |
| HFVDAIPEGIHA | 0.583 ± 0.023 |
| HGCQGKVRQSHR | 0.651 ± 0.039 |
| HGCVWCSGLFGV | 0.739 ± 0.029 |
| HGHLGKFLGARE | 0.689 ± 0.022 |
| HGISLVWEVGEG | 0.6439 ± 0.0035 |
| HGLPSFANPGNF | 0.716 ± 0.0095 |
| HGNWGSSPVVSG | 0.632 ± 0.055 |
| HGPFLSNLLPDK | 0.799 ± 0.085 |
| HGVVGVFGLVSG | 0.664 ± 0.0075 |
| HIGSYTFILPSS | 0.759 ± 0.064 |
| HIHHVPGPHITA | 0.706 ± 0.0088 |
| HIHQDPGVIRWG | 0.7216 ± 0.0015 |
| HIHRGDRVIGDV | 0.682 ± 0.01 |
| HINVAVAKYSRQ | 0.697 ± 0.047 |
| HIPPFSPCPPTG | 0.707 ± 0.02 |
| HITMERTERTKY | 0.7145 ± 0.0057 |
| HKEHLDNPRLRP | 0.714 ± 0.012 |
| HKKAWVVTVGIS | 0.602 ± 0.042 |
| HKRCCIPTNDSQ | 0.6991 ± 0.0063 |
| HKTNTSRKSRRT | 0.737 ± 0.12 |
| HLCLACYRSVDM | 0.688 ± 0.011 |
| HLFYASCNSSAS | 0.67112 ± 0.00053 |

| Sequence | protein stability index |
| --- | --- |
| HLLCPLSPYICH | 0.681 ± 0.02 |
| HLLNPVRSPLPA | 0.63 ± 0.063 |
| HLPLPPRLLTHV | 0.654 ± 0.042 |
| HLPPPPTPFPLT | 0.757 ± 0.16 |
| HMCPWVWPVRDQ | 0.691 ± 0.024 |
| HMGTNSSTGDRN | 0.636 ± 0.032 |
| HNIRIDTSEKNR | 0.6001 ± 0.0024 |
| HNKTTNGNSHKN | 0.715 ± 0.073 |
| HPATPPPLLPPL | 0.74479 ± 0.0007 |
| HPFLPLFYHFPF | 0.733 ± 0.037 |
| HPPASPPHSPRS | 0.63 ± 0.07 |
| HPPKPHHPSNPC | 0.691 ± 0.034 |
| HPPLLPPPTPTS | 0.752 ± 0.062 |
| HPPLPPPLPGSP | 0.761 ± 0.049 |
| HPPPDPPFLAST | 0.611 ± 0.042 |
| HPPPVLSPPLSP | 0.7107 ± 0.0033 |
| HPPSPPPPPSRL | 0.713 ± 0.071 |
| HPPTLPPLPIPP | 0.625 ± 0.0091 |
| HPRPPAASSRTR | 0.707 ± 0.044 |
| HPRWTPPTQSAS | 0.716 ± 0.049 |
| HPSSLRLSSSAF | 0.697 ± 0.014 |
| HPVLGPNRVINI | 0.71 ± 0.087 |
| HPVPFSVASHLN | 0.645 ± 0.03 |
| HPWAFRIRTPRL | 0.752 ± 0.09 |
| HPYVTSHGRPLR | 0.677 ± 0.024 |

| Sequence | protein stability index |
| --- | --- |
| HQPSPFPKNSPT | 0.717 ± 0.06 |
| HRARWLSLGVTW | 0.655 ± 0.035 |
| HRCNCVFPENSL | 0.693 ± 0.038 |
| HRFEEGAPAPTE | 0.704 ± 0.013 |
| HRGIPMRDLAPN | 0.675 ± 0.02 |
| HRKPHRSKTPIH | 0.693 ± 0.032 |
| HRLSFPTQNIRG | 0.677 ± 0.019 |
| HRPPSVNRVSLM | 0.692 ± 0.012 |
| HRRCPILFKMAT | 0.674 ± 0.12 |
| HRSIDEGCSCCD | 0.627 ± 0.093 |
| HSCFPPLSTSVL | 0.817 ± 0.12 |
| HSGDLYFWGCRD | 0.706 ± 0.061 |
| HSLRRLSLYVSL | 0.612 ± 0.086 |
| HSPHSQYLLRID | 0.72 ± 0.033 |
| HSPPSPHFPHHH | 0.6609 ± 0.0043 |
| HSPVPPLPALPL | 0.73 ± 0.024 |
| HSQAPPPHPHAP | 0.719 ± 0.024 |
| HSRALLSVLPPH | 0.7023 ± 0.0057 |
| HSRPHTAPPYRA | 0.643 ± 0.023 |
| HSSDTAFSPLPP | 0.6449 ± 0.0024 |
| HSWFSWSVVSEL | 0.7308 ± 0.0018 |
| HSYLSPPLLASP | 0.715 ± 0.069 |
| HTEELKKSIKTQ | 0.637 ± 0.082 |
| HTEVDIVKRDRR | 0.6896 ± 0.00098 |
| HTGPTRPGHPLP | 0.703 ± 0.03 |

| Sequence | protein stability index |
| --- | --- |
| HTRLCFSPPRGI | 0.686 ± 0.02 |
| HTWARGLGVIRP | 0.768 ± 0.012 |
| HTYKADSLYTAR | 0.748 ± 0.015 |
| HVRLSCTRGMVI | 0.695 ± 0.015 |
| HVVVSPRSNRIL | 0.7429 ± 0.0055 |
| HWPSPLSPAVPG | 0.804 ± 0.084 |
| HWRWGGRSGGDR | 0.707 ± 0.013 |
| HYPLPPLLPPAP | 0.674 ± 0.014 |
| HYRSNFGRDSNL | 0.762 ± 0.082 |
| IAAPANQGHSKP | 0.694 ± 0.042 |
| IACDPNNRKDFT | 0.627 ± 0.008 |
| IACSVWYCCMVI | 0.526 ± 0.014 |
| IAEVGRFHLVVS | 0.542 ± 0.04 |
| IALWLYALSLAF | 0.532 ± 0.016 |
| ICCGLCRDCSCL | 0.732 ± 0.069 |
| ICEYGLKRKIHF | 0.68199 ± 0.0006 |
| ICRFSNRYSCPL | 0.689 ± 0.016 |
| ICSVGGFWLSCV | 0.596 ± 0.032 |
| ICVTSFSVWGCC | 0.592 ± 0.028 |
| IDLVLCIGLGYQ | 0.62 ± 0.063 |
| IDPTLPARAAPP | 0.737 ± 0.029 |
| IDPVVFCEYTHA | 0.688 ± 0.011 |
| IDVIIESVFSLF | 0.619 ± 0.09 |
| IEFPQGRKTTQS | 0.629 ± 0.0082 |
| IENNIITRGTRV | 0.735 ± 0.027 |

| Sequence | protein stability index |
| --- | --- |
| IERFKKMRGVGS | 0.801 ± 0.084 |
| IERKNYPQNRRQ | 0.62 ± 0.046 |
| IFGMSGYVSIIL | 0.671 ± 0.014 |
| IFNYGGANFIYC | 0.714 ± 0.028 |
| IFPPPLLPSLPT | 0.703 ± 0.086 |
| IFRTRISSSLWC | 0.685 ± 0.0083 |
| IFVTLGWARMRY | 0.647 ± 0.065 |
| IFWGFSFRGWGG | 0.684 ± 0.0086 |
| IGFCVRGYGTTG | 0.727 ± 0.1 |
| IGFPFRIYRFAF | 0.563 ± 0.04 |
| IGGGWIGRYVSR | 0.684 ± 0.033 |
| IGGWWCGALLGD | 0.79 ± 0.074 |
| IGHVVTWCFGRV | 0.6898 ± 0.0041 |
| IGLKKVVKIRKD | 0.614 ± 0.039 |
| IGTRHIKILGRY | 0.698 ± 0.047 |
| IGVRSTRFCAIR | 0.655 ± 0.0093 |
| IGVVKHGAAEKV | 0.711 ± 0.069 |
| IGWCPASFMVIG | 0.585 ± 0.049 |
| IHLSVYPLQPSC | 0.76 ± 0.04 |
| IHQVGCFHIPFG | 0.666 ± 0.0097 |
| IIQNNNQLKKRR | 0.671 ± 0.049 |
| IIRKTKSKQEMI | 0.706 ± 0.039 |
| IIVPCGRWEGGG | 0.69 ± 0.017 |
| IIVWGGAGLWGV | 0.59 ± 0.0027 |
| IKGKNTGKERER | 0.6176 ± 0.00089 |

| Sequence | protein stability index |
| --- | --- |
| IKKRDKAKKEYI | 0.672 ± 0.0077 |
| IKKSMKSLTRTE | 0.735 ± 0.015 |
| IKKYNEKRITKV | 0.66 ± 0.045 |
| IKLKVKIQKENG | 0.654 ± 0.021 |
| IKNEEKKLIESQ | 0.76 ± 0.073 |
| IKNEKKKKKNKK | 0.7 ± 0.035 |
| IKNSCAGCTRDV | 0.671 ± 0.035 |
| IKSKFILKTRPM | 0.691 ± 0.091 |
| ILCTVVKTDSKE | 0.702 ± 0.081 |
| ILGGRIRLVGRK | 0.708 ± 0.033 |
| ILLFLLPFSHRL | 0.658 ± 0.076 |
| ILLSHRLQVSSC | 0.564 ± 0.035 |
| ILPCSRYNILNV | 0.659 ± 0.0078 |
| ILSASSLFPFVS | 0.693 ± 0.053 |
| ILTCGARSSICD | 0.639 ± 0.011 |
| ILYNIEKQQSSV | 0.683 ± 0.032 |
| IMTNGADRERYR | 0.736 ± 0.034 |
| INARCNRTIVRP | 0.646 ± 0.021 |
| INEEIVDMKRLL | 0.697 ± 0.0095 |
| INKKKKEKKKVE | 0.731 ± 0.023 |
| INKWNKRDGLFQ | 0.66 ± 0.03 |
